Measured values from patent US20260098102A1 (NATIONAL UNIVERSITY CORPORATION KOBE UNIVERSITY, published 2026).

Key:
human SIRPA_V1 protein [1] = target: T1, human SIRPA_V1 protein (human, UniProt P78324 31-504); test: cell-based ELISA on 293α cells expressing FLAG-tagged SIRPA_V1; Abs 490 normalized to FLAG tag
T1 construct: Expressed on 293α cells from pcDNA3.2 V5-DEST or pFLAG V5-DEST (FLAG-tagged) vectors; also called human SIRPA Variant 1; hSIRPA V1
Procedure: The 293α cells [described in Example 1)-6] were prepared in a 10% FBS-containing DMEM medium to 5×10⁵ cells/mL. pFLAG V5-DEST-SIRPA_V1, pFLAG V5-DEST-SIRPA_V2, or pFLAG V5-DEST was introduced into the cells using Lipofectamine LTX (Invitrogen), followed by addition of 100 μL per well to a 96-well plate (Corning Incorporated), and cells were cultured overnight in the 10% FBS-containing DMEM medium at 37° C. under a 5% CO₂ condition. The obtained introduced cells were used for cell-based ELISA in a state that they adhered to each other. After the culture supernatant was removed, 50 μL per well of the cD13 (IgG2 and IgG4pf), cF44 (IgG1, IgG2, IgG4p, and IgG4pf), and cF63 (IgG2 and IgG4pf) antibodies prepared in Examples 3 and 4 were added to each of pFLAG V5-DEST-SIRPA_V1, pFLAG V5-DEST-SIRPA_V2, or pFLAG V5-DEST-introduced cells at final concentrations of 0 to 10,000 ng/mL, and the mixture was allowed to stand at 4° C. for one hour. Further, 50 μL per well of anti-FLAG M2 antibody (SIGMA) diluted with 5% FBS-containing PBS to a final concentration of 10,000 ng/mL was added to a well for detecting expression of each SIRPA construct, and the mixture was allowed to stand at 4° C. for one hour. The cells in the well were washed once with 5% FBS-containing PBS, followed by addition of Peroxidase AffiniPure F(ab′)₂ Fragment Goat Anti-Human IgG, Fcγ Fragment Specific (Jackson ImmunoResearch) diluted 1000-fold with 5% FBS-containing PBS, and the mixture was allowed to stand at 4° C. for one hour. The cells in the well were washed five times with 5% FBS-containing PBS, followed by addition of 100 μL per well of an OPD coloration solution [o-phenylenediamine dihydrochloride (Wako Pure Chemical Industries, Ltd.) and H₂O₂ were dissolved in an OPD solution (0.05 M trisodium citrate, 0.1 M disodium hydrogen phosphate dodecahydrate, pH 4.5) at 0.4 mg/mL and 0.6% (v/v), respectively]. A coloration reaction was performed with stirring occasionally, 100 μL per well of 1 M HCl was added to terminate the coloration reaction, and then absorbance at 490 nm was measured with a plate reader ARVO (PerkinElmer Inc.). Binding of the human chimeric anti-human SIRPA antibodies to each construct was standardized by expression of the FLAG tag.

human SIRPB = target: T2, human SIRPB (human, UniProt O00241 30-398); test: flow cytometry on CHO-K1 cells expressing FLAG-tagged human SIRPB; PE anti-human IgG; MFI standardized to secondary antibody alone
T2 construct: whole, on cells; FLAG-tagged (pFLAG V5-DEST), on CHO-K1 cells; also called SIRPβ1; signal regulatory protein β1
T2 sequence (O00241 30-398): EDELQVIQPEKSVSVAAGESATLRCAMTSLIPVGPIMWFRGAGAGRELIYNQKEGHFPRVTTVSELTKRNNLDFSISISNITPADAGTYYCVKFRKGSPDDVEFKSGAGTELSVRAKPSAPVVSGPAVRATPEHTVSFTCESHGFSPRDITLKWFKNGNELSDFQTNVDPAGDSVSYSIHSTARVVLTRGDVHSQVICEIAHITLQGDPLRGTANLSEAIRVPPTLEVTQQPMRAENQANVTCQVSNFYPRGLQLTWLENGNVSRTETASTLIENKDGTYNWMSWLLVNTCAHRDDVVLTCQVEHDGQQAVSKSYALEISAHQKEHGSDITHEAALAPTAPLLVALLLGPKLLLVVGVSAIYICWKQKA
Procedure: SIRPβ1 (signal regulatory protein β1: the amino acid sequence thereof is published as RefSeq accession number NP_006056) and SIRPγ (signal regulatory protein γ: the amino acid sequence thereof is published as RefSeq accession number NP_061026) are molecules belonging to the SIRPA family. In the present invention, “SIRPα” may be referred to as “SIRPA,” “SIRPβ1” may be referred to as […] and “SIRPγ” may be referred to as “SIRPG.” CHO-K1 cells were prepared in a 10% FBS-containing Ham's F-12K medium at 3.3×10⁵ cells/mL and cultured overnight at 37° C. under a 5% CO₂ condition. pFLAG V5-DEST-human SIRPβ, pFLAG V5-DEST-human SIRPG, or pFLAG V5-DEST was introduced into the cells using Lipofectamine LTX (Invitrogen), and cells were cultured in a 10% FBS-containing Ham's F-12K medium at 37° C. under a 5% CO₂ condition for 24 hours. The obtained introduced cells were collected and seeded on a 96-well plate. After the culture supernatant was removed, 100 μL per well of various anti-human SIRPA antibodies or various control human IgG was added to each of various gene introduced cells at a final concentration of 0 to 10,000 ng/mL, and the mixture was allowed to stand at 4° C. for 25 minutes. After the mixture was centrifuged, the supernatant was removed, and cells were washed twice with 5% FBS-containing PBS. After the mixture was centrifuged, the supernatant was removed, 50 μL per well of a 1/400 diluted solution of PE Mouse anti-Human IgG antibody (BioLegend) was added, and the mixture was allowed to stand at 4° C. for 25 minutes. After the mixture was centrifuged, the supernatant was removed, and cells were washed twice with 5% FBS-containing PBS.
(§1) After the mixture was centrifuged, and the supernatant was removed, cells were suspended in 100 μL per well of 1× BD Stabilizing Fixative (Becton Dickinson), and the cell count was measured by flow cytometry (FACS Canto II: Becton Dickinson). For data analysis, FlowJo (TreeStar) was used. Cells were characterized by detecting forward scattered (FSC) light and side-scattered (SSC) light, and then the mean fluorescence intensity of PE was calculated. Binding of various antibodies to the family molecules was calculated by standardizing the fluorescence intensity using the mean fluorescence intensity of a sample in which the secondary antibody alone was allowed to react.

human SIRPG = target: T3, human SIRPG (human, UniProt Q9P1W8 29-387); test: flow cytometry on CHO-K1 cells expressing FLAG-tagged human SIRPG; PE anti-human IgG; MFI standardized to secondary antibody alone
T3 construct: whole, on cells; FLAG-tagged (pFLAG V5-DEST), on CHO-K1 cells; also called SIRPγ; signal regulatory protein γ
T3 sequence (Q9P1W8 29-387): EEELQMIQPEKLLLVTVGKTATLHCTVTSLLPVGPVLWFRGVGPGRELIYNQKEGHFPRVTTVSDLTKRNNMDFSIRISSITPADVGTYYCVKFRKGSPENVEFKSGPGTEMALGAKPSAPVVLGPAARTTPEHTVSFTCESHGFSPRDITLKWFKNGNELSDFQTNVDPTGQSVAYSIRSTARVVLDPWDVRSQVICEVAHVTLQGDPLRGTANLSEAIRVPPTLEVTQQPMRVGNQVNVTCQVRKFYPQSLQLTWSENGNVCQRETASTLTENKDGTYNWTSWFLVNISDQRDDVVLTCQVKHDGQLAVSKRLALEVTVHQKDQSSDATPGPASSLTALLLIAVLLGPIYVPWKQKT
Procedure: SIRPβ1 (signal regulatory protein β1: the amino acid sequence thereof is published as RefSeq accession number NP_006056) and SIRPγ (signal regulatory protein γ: the amino acid sequence thereof is published as RefSeq accession number NP_061026) are molecules belonging to the SIRPA family. In the present invention, “SIRPα” may be referred to as “SIRPA,” “SIRPβ1” may be referred to as […] and “SIRPγ” may be referred to as “SIRPG.” CHO-K1 cells were prepared in a 10% FBS-containing Ham's F-12K medium at 3.3×10⁵ cells/mL and cultured overnight at 37° C. under a 5% CO₂ condition. pFLAG V5-DEST-human SIRPβ, pFLAG V5-DEST-human SIRPG, or pFLAG V5-DEST was introduced into the cells using Lipofectamine LTX (Invitrogen), and cells were cultured in a 10% FBS-containing Ham's F-12K medium at 37° C. under a 5% CO₂ condition for 24 hours. The obtained introduced cells were collected and seeded on a 96-well plate. After the culture supernatant was removed, 100 μL per well of various anti-human SIRPA antibodies or various control human IgG was added to each of various gene introduced cells at a final concentration of 0 to 10,000 ng/mL, and the mixture was allowed to stand at 4° C. for 25 minutes. After the mixture was centrifuged, the supernatant was removed, and cells were washed twice with 5% FBS-containing PBS. […]
as §1, with “For data analysis, FlowJo (TreeStar) was used.” left out

human SIRPA_V1 protein [2] = target: T1, human SIRPA_V1 protein; test: blocking cell-based ELISA: peroxidase-labeled CD47-Fc (1 µg/mL) on 293α cells expressing SIRPA_V1
Procedure: After the culture supernatant of the human SIRPA_V1 or V2 expression vector-introduced 293 cells prepared in Example 9)-1 was removed, 50 μL per well of various anti-SIRPA antibodies or various control Human IgG diluted with 5% FBS-containing PBS to a final concentration of 0 to 10,000 ng/ml was added to each of pcDNA3.2 V5-DEST-SIRPA_V1 or V2-introduced 293α cells, immediately followed by addition of 50 µL per well of peroxidase-labeled CD47-Fc prepared with 5% FBS-containing PBS at 1 μg/mL, and the mixture was allowed to stand at 4° C. for one hour. Thereafter, the SIRPA-CD47 binding inhibitory activity was evaluated in the same manner as in 1)-6-3.

T1 sequence (P78324 31-504 limits assumed): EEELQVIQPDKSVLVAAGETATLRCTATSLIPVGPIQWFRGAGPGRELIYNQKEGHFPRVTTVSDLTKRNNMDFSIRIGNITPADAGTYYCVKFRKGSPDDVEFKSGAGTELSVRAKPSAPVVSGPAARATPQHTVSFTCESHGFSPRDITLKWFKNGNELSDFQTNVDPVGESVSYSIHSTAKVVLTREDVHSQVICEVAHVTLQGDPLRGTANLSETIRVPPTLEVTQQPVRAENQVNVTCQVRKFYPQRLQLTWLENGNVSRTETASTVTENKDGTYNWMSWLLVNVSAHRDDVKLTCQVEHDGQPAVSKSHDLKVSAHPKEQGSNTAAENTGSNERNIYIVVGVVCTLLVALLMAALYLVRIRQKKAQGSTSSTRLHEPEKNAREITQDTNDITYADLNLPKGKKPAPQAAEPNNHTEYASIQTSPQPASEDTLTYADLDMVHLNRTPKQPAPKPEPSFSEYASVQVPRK

B1: human chimeric anti-SIRPA antibody cD13 (antibody, human IgG4 S228P, kappa, F234A L235A, V domains shown)
VH: EVQLVESGGGLVQPGRSLKLSCLASGFTFSDYGMIWVRQAPGKGLEWVASISSSSSYIYYADTVKGRFTISRENAKNTLFLHMTSLRSEDTALYYCARRYYGFNYPFDYWGQGVMVTVSS
VL: DTVLTQSPALAVSLGQRVTISCGASKSVRTYMHWYQQKSGQQPKLLIYSASNLEAGVPSRFSGSGSGTDFTLTIDPVEADDIANYYCQQSNEPPYTFGAGTKLELKR
notes: Human IgG4proFALA heavy chain, human kappa light chain; also called cD13 (IgG4pf); human chimeric antibody D13
Question: With B1 as the binder, how does the “EC50 (read off the curve)” value (human SIRPA_V1 protein [1]) read?
Answer: ~80 ng/mL

B2: humanized anti-SIRPA antibody hD13_H1L3 (antibody, human IgG4 S228P, kappa, F234A L235A, V domains shown)
VH: QVQLVESGGGVVQPGRSLRLSCAASGFTFSDYGMIWVRQAPGKGLEWVASISSSSSYIYYADSVKGRFTISRDNSKNRLYLQMNSLRAEDTAVYYCARRYYGFNYPFDYWGQGTMVTVSS
VL: DTQLTQSPSSLSASVGQRVTITCGASKSVRTYMHWYQQKPGKQPKLLIYSASNLEAGVPSRFSGSGSGTDFTLTISSLQPEDFATYYCQQSNEPPYTFGQGTKLEIKR
notes: hH1 heavy chain (IgG4proFALA) and hL3 kappa light chain; also called hD13_HIL3; HIL3 antibody
Question: Which “EC50 (read off the curve)” value (human SIRPB) does the source give for B2 here?
Answer: ~30 ng/mL

Question: And the “EC50 (read off the curve)” value (human SIRPG)?
Answer: ~30 ng/mL

Question: What about the IC50 (human SIRPA_V1 protein [2]) of the same binder?
Answer: 1.58 µg/mL
